Biological target: c-kit receptor (CD117), expressed on BJAB c-kit cells (Mus musculus) (UniProt P05532)
Test: flow cytometry (cell titration, 0-100 nM)
Conditions: apparent Kd on BJAB c-kit cells, background subtracted; Aptamer folded in SELEX buffer (DPBS with Ca/Mg, 5 mM MgCl2, 0.45% glucose, tRNA), 95 C then …; binding in DPBS with Ca/Mg + 0.1% BSA, 1 h on ice; FAM

UniProt P05532, sequence (P05532 25-979): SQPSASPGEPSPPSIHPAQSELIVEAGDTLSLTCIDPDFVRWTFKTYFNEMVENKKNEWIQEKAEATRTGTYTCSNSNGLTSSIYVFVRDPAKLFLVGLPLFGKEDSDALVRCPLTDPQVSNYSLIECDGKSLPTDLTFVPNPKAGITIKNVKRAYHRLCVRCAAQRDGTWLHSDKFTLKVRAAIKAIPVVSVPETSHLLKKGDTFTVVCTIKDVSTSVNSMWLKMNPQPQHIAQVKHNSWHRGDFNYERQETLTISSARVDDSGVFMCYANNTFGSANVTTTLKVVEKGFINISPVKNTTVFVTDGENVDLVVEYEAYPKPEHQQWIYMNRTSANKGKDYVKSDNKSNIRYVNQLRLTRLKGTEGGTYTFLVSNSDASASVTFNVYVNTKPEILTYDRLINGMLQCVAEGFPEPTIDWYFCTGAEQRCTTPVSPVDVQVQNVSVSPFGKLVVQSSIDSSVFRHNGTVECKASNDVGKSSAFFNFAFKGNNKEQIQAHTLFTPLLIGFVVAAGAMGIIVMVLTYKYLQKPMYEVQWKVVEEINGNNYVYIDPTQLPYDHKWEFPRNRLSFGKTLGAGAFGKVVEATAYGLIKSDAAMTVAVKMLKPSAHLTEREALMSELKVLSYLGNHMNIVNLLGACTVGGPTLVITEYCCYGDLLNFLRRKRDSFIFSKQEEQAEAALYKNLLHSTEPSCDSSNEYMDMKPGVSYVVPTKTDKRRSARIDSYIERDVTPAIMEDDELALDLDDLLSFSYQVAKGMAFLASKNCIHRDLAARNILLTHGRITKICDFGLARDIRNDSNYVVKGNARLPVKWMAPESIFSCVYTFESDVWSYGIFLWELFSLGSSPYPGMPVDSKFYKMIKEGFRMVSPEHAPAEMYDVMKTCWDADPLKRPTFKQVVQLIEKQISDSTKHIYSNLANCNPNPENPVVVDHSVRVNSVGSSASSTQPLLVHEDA

AGCAGCACAGAGGTCAGATGGCTCAACGCGGGACGGCTCTCCCATTGACCCTATGCGTGCTACCGTGAA [Kit-129]
Kd: 12.2 nM
